Experimental data reported in PMC3483176, “Structural Insight into the Clostridium difficile Ethanolamine Utilisation Microcompartment” (PLoS ONE, 2012).

Assays:
[1] = biological target: the molecule itself; assay: crystal structure; CD1908-His at 10 mg/ml in Milli-Q H2O, sitting drop, 24% (w/v) PEG 1500, 20% (v/v) glycerol; space group H 3; two molecules in the asymmetric unit, hexamer by the crystallographic 3-fold axis; oligomerisation states calculated with PISA
[2] = biological target: the molecule itself; assay: crystal structure; CD1918-His at 10 mg/ml in Milli-Q H2O, sitting drop, 200 mM Li2SO4, 100 mM phosphate/citrate buffer pH 4.2, 20% (w/v) PEG 1000; space group I 1 2 1; three chains in the asymmetric unit, hexamer by a crystallographic 2-fold axis; oligomerisation states calculated with PISA

Row | Protein | stoichiometry N [1] | stoichiometry N [2]
1 | CD1908, C-terminal His6 tagged (CD1908-His) (natural protein, Clostridium difficile 630, UniProt Q187M0 1-116, looked up, CD1908, EutS homologue, BMC shell protein of the eut operon of Clostridium difficile 630; full length open reading frame amplified from genomic DNA (genome positions 2209853-2210203); Cloned between NcoI and XhoI of pET28b; also called EutS; C. difficile EutS homologue; source: E. coli B834 (DE3), purified (HisTrap, Superdex S200 size exclusion); not shown: His6, C-terminal, kept) MTEESKQRVIQEYVPGKQVTLAHIIANPNEDIYKKLGLVLDKKDAIGILTITPSEASIIAADVATKASNVSLGFIDRFSGSVVISGDVSSVESALNDVLEVLGNMLNFSSTKITRT | 6 | 
2 | CD1918, C-terminal His6 tagged (CD1918-His) (natural protein, CD1918, EutM homologue, BMC shell protein of the eut operon of Clostridium difficile 630; full length open reading frame amplified from genomic DNA (genome positions 2219567-2219854); Cloned between NcoI and XhoI of pET28b; the XhoI site probably adds Leu-Glu before the His6 tag (surmised); also called EutM; C. difficile EutM homologue; source: E. coli B834 (DE3), purified (HisTrap, Superdex S200 …)) MASANALGMIETKGLVGAIEAADAMVKAANVQLVGKEQVGGGLVTVMVRGDVGAVKAATDAGAAAAERVGELISVHVIPRPHFEVDAILPKVSAE |  | 6
